According to US20180155451A1 (published 2018):

T1: FcγRIIb extracellular domain with C-terminal His tag (human, UniProt P31994 43-217)
T1 construct: extracellular domain; Expressed in FreeStyle293 cells; used as analyte in Biacore; also called FcgRIIb; 2b; not shown: C-terminal His tag
T1 sequence (looked up): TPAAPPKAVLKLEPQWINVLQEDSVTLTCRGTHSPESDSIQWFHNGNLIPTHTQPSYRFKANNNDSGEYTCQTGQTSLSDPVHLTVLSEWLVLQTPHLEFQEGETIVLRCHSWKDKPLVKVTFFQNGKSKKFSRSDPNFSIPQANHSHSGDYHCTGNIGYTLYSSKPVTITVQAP


target: T1, FcγRIIb extracellular domain with …; assay: SPR (Biacore), antibody captured on antigen-peptide chip, FcgRIIb as analyte; binding relative to GpH7-B3/GpL16-k0 (HoCon Ab) = 100

| Ho/Con_2b | Binder |
| --- | --- |
| 107 % of control | GpH7-B3 variant T335_04F/GpL16-k0 (Ho Ab) (antibody, human IgG1, kappa, Substitution in both H chains; position in EU numbering; also called T335F homodimerized antibody) heavy: not shown light: DIVMTQSPLSLPVTPGEPASISCQASESLVHSNRNTYLHWYLQKPGQSPQLLIYKVSNRFSGVPDRFSGSGSGTDFTLKISRVEAEDVGVYYCSQNTHVPPTFGQGTKVEIERTVAAPSVFIFPPSDEQLKSGTASVVCLLNNFYPREAKVQWKVDNALQSGNSQESVTEQDSKDSTYSLSSTLTLSKADYEKHKVYACEVTHQGLSSPVTKSFNRGEC |
| 116 % of control | GpH7-B3 variant T335_09D/GpL16-k0 (Ho Ab) (antibody, human IgG1, kappa, Substitution in both H chains; position in EU numbering; also called T335D homodimerized antibody) heavy: not shown light: DIVMTQSPLSLPVTPGEPASISCQASESLVHSNRNTYLHWYLQKPGQSPQLLIYKVSNRFSGVPDRFSGSGSGTDFTLKISRVEAEDVGVYYCSQNTHVPPTFGQGTKVEIERTVAAPSVFIFPPSDEQLKSGTASVVCLLNNFYPREAKVQWKVDNALQSGNSQESVTEQDSKDSTYSLSSTLTLSKADYEKHKVYACEVTHQGLSSPVTKSFNRGEC |
| 124 % of control | GpH7-B3 variant Y300_19Q/GpL16-k0 (Ho Ab) (antibody, human IgG1, kappa, Substitution in both H chains; position in EU numbering; also called Y300Q homodimerized antibody) heavy: not shown light: DIVMTQSPLSLPVTPGEPASISCQASESLVHSNRNTYLHWYLQKPGQSPQLLIYKVSNRFSGVPDRFSGSGSGTDFTLKISRVEAEDVGVYYCSQNTHVPPTFGQGTKVEIERTVAAPSVFIFPPSDEQLKSGTASVVCLLNNFYPREAKVQWKVDNALQSGNSQESVTEQDSKDSTYSLSSTLTLSKADYEKHKVYACEVTHQGLSSPVTKSFNRGEC |
| 106 % of control | GpH7-B3 variant T335_08L/GpL16-k0 (Ho Ab) (antibody, human IgG1, kappa, Substitution in both H chains; position in EU numbering; also called T335L homodimerized antibody) heavy: not shown light: DIVMTQSPLSLPVTPGEPASISCQASESLVHSNRNTYLHWYLQKPGQSPQLLIYKVSNRFSGVPDRFSGSGSGTDFTLKISRVEAEDVGVYYCSQNTHVPPTFGQGTKVEIERTVAAPSVFIFPPSDEQLKSGTASVVCLLNNFYPREAKVQWKVDNALQSGNSQESVTEQDSKDSTYSLSSTLTLSKADYEKHKVYACEVTHQGLSSPVTKSFNRGEC |

target: T1, FcγRIIb extracellular domain with …; assay: SPR (Biacore), antibody captured on antigen-peptide chip, FcgRIIb as analyte; binding relative to GpH7-A5/GpH7-B3/GpL16-k0 (HeCon Ab) = 100

| He/Con_2b | Binder |
| --- | --- |
| 126 % of control | GpH7-A5/GpH7-B3 variant L328_03V/GpL16-k0 (He Ab) (antibody, human IgG1, kappa, Substitution in one H chain only; position in EU numbering; also called L328V heterodimerized antibody) heavy 1: not shown heavy 2: not shown light: DIVMTQSPLSLPVTPGEPASISCQASESLVHSNRNTYLHWYLQKPGQSPQLLIYKVSNRFSGVPDRFSGSGSGTDFTLKISRVEAEDVGVYYCSQNTHVPPTFGQGTKVEIERTVAAPSVFIFPPSDEQLKSGTASVVCLLNNFYPREAKVQWKVDNALQSGNSQESVTEQDSKDSTYSLSSTLTLSKADYEKHKVYACEVTHQGLSSPVTKSFNRGEC |
| 105 % of control | GpH7-A5/GpH7-B3 variant L328_19Q/GpL16-k0 (He Ab) (antibody, human IgG1, kappa, Substitution in one H chain only; position in EU numbering; also called L328Q heterodimerized antibody) heavy 1: not shown heavy 2: not shown light: DIVMTQSPLSLPVTPGEPASISCQASESLVHSNRNTYLHWYLQKPGQSPQLLIYKVSNRFSGVPDRFSGSGSGTDFTLKISRVEAEDVGVYYCSQNTHVPPTFGQGTKVEIERTVAAPSVFIFPPSDEQLKSGTASVVCLLNNFYPREAKVQWKVDNALQSGNSQESVTEQDSKDSTYSLSSTLTLSKADYEKHKVYACEVTHQGLSSPVTKSFNRGEC |
| 193 % of control | GpH7-A5/GpH7-B3 variant L328_15Y/GpL16-k0 (He Ab) (antibody, human IgG1, kappa, Substitution in one H chain only; position in EU numbering; also called L328Y heterodimerized antibody) heavy 1: not shown heavy 2: not shown light: DIVMTQSPLSLPVTPGEPASISCQASESLVHSNRNTYLHWYLQKPGQSPQLLIYKVSNRFSGVPDRFSGSGSGTDFTLKISRVEAEDVGVYYCSQNTHVPPTFGQGTKVEIERTVAAPSVFIFPPSDEQLKSGTASVVCLLNNFYPREAKVQWKVDNALQSGNSQESVTEQDSKDSTYSLSSTLTLSKADYEKHKVYACEVTHQGLSSPVTKSFNRGEC |
| 109 % of control | GpH7-A5/GpH7-B3 variant K334_15Y/GpL16-k0 (He Ab) (antibody, human IgG1, kappa, Substitution in one H chain only; position in EU numbering; also called K334Y heterodimerized antibody) heavy 1: not shown heavy 2: not shown light: DIVMTQSPLSLPVTPGEPASISCQASESLVHSNRNTYLHWYLQKPGQSPQLLIYKVSNRFSGVPDRFSGSGSGTDFTLKISRVEAEDVGVYYCSQNTHVPPTFGQGTKVEIERTVAAPSVFIFPPSDEQLKSGTASVVCLLNNFYPREAKVQWKVDNALQSGNSQESVTEQDSKDSTYSLSSTLTLSKADYEKHKVYACEVTHQGLSSPVTKSFNRGEC |
| 160 % of control | GpH7-A5/GpH7-B3 variant L328_07I/GpL16-k0 (He Ab) (antibody, human IgG1, kappa, Substitution in one H chain only; position in EU numbering; also called L328I heterodimerized antibody) heavy 1: not shown heavy 2: not shown light: DIVMTQSPLSLPVTPGEPASISCQASESLVHSNRNTYLHWYLQKPGQSPQLLIYKVSNRFSGVPDRFSGSGSGTDFTLKISRVEAEDVGVYYCSQNTHVPPTFGQGTKVEIERTVAAPSVFIFPPSDEQLKSGTASVVCLLNNFYPREAKVQWKVDNALQSGNSQESVTEQDSKDSTYSLSSTLTLSKADYEKHKVYACEVTHQGLSSPVTKSFNRGEC |
| 109 % of control | GpH7-A5/GpH7-B3 variant K334_19Q/GpL16-k0 (He Ab) (antibody, human IgG1, kappa, Substitution in one H chain only; position in EU numbering; also called K334Q heterodimerized antibody) heavy 1: not shown heavy 2: not shown light: DIVMTQSPLSLPVTPGEPASISCQASESLVHSNRNTYLHWYLQKPGQSPQLLIYKVSNRFSGVPDRFSGSGSGTDFTLKISRVEAEDVGVYYCSQNTHVPPTFGQGTKVEIERTVAAPSVFIFPPSDEQLKSGTASVVCLLNNFYPREAKVQWKVDNALQSGNSQESVTEQDSKDSTYSLSSTLTLSKADYEKHKVYACEVTHQGLSSPVTKSFNRGEC |
| 115 % of control | GpH7-A5/GpH7-B3 variant K334_18N/GpL16-k0 (He Ab) (antibody, human IgG1, kappa, Substitution in one H chain only; position in EU numbering; also called K334N heterodimerized antibody) heavy 1: not shown heavy 2: not shown light: DIVMTQSPLSLPVTPGEPASISCQASESLVHSNRNTYLHWYLQKPGQSPQLLIYKVSNRFSGVPDRFSGSGSGTDFTLKISRVEAEDVGVYYCSQNTHVPPTFGQGTKVEIERTVAAPSVFIFPPSDEQLKSGTASVVCLLNNFYPREAKVQWKVDNALQSGNSQESVTEQDSKDSTYSLSSTLTLSKADYEKHKVYACEVTHQGLSSPVTKSFNRGEC |
| 204 % of control | GpH7-A5/GpH7-B3 variant P238_08L/GpL16-k0 (He Ab) (antibody, human IgG1, kappa, Substitution in one H chain only; position in EU numbering; also called P238L heterodimerized antibody) heavy 1: not shown heavy 2: not shown light: DIVMTQSPLSLPVTPGEPASISCQASESLVHSNRNTYLHWYLQKPGQSPQLLIYKVSNRFSGVPDRFSGSGSGTDFTLKISRVEAEDVGVYYCSQNTHVPPTFGQGTKVEIERTVAAPSVFIFPPSDEQLKSGTASVVCLLNNFYPREAKVQWKVDNALQSGNSQESVTEQDSKDSTYSLSSTLTLSKADYEKHKVYACEVTHQGLSSPVTKSFNRGEC |
| 141 % of control | GpH7-A5/GpH7-B3 variant L328_14T/GpL16-k0 (He Ab) (antibody, human IgG1, kappa, Substitution in one H chain only; position in EU numbering; also called L328T heterodimerized antibody) heavy 1: not shown heavy 2: not shown light: DIVMTQSPLSLPVTPGEPASISCQASESLVHSNRNTYLHWYLQKPGQSPQLLIYKVSNRFSGVPDRFSGSGSGTDFTLKISRVEAEDVGVYYCSQNTHVPPTFGQGTKVEIERTVAAPSVFIFPPSDEQLKSGTASVVCLLNNFYPREAKVQWKVDNALQSGNSQESVTEQDSKDSTYSLSSTLTLSKADYEKHKVYACEVTHQGLSSPVTKSFNRGEC |
| 142 % of control | GpH7-A5/GpH7-B3 variant L328_06M/GpL16-k0 (He Ab) (antibody, human IgG1, kappa, Substitution in one H chain only; position in EU numbering; also called L328M heterodimerized antibody) heavy 1: not shown heavy 2: not shown light: DIVMTQSPLSLPVTPGEPASISCQASESLVHSNRNTYLHWYLQKPGQSPQLLIYKVSNRFSGVPDRFSGSGSGTDFTLKISRVEAEDVGVYYCSQNTHVPPTFGQGTKVEIERTVAAPSVFIFPPSDEQLKSGTASVVCLLNNFYPREAKVQWKVDNALQSGNSQESVTEQDSKDSTYSLSSTLTLSKADYEKHKVYACEVTHQGLSSPVTKSFNRGEC |
| 113 % of control | GpH7-A5/GpH7-B3 variant K334_16H/GpL16-k0 (He Ab) (antibody, human IgG1, kappa, Substitution in one H chain only; position in EU numbering; also called K334H heterodimerized antibody) heavy 1: not shown heavy 2: not shown light: DIVMTQSPLSLPVTPGEPASISCQASESLVHSNRNTYLHWYLQKPGQSPQLLIYKVSNRFSGVPDRFSGSGSGTDFTLKISRVEAEDVGVYYCSQNTHVPPTFGQGTKVEIERTVAAPSVFIFPPSDEQLKSGTASVVCLLNNFYPREAKVQWKVDNALQSGNSQESVTEQDSKDSTYSLSSTLTLSKADYEKHKVYACEVTHQGLSSPVTKSFNRGEC |
| 219 % of control | GpH7-A5/GpH7-B3 variant L328_04F/GpL16-k0 (He Ab) (antibody, human IgG1, kappa, Substitution in one H chain only; position in EU numbering; also called L328F heterodimerized antibody) heavy 1: not shown heavy 2: not shown light: DIVMTQSPLSLPVTPGEPASISCQASESLVHSNRNTYLHWYLQKPGQSPQLLIYKVSNRFSGVPDRFSGSGSGTDFTLKISRVEAEDVGVYYCSQNTHVPPTFGQGTKVEIERTVAAPSVFIFPPSDEQLKSGTASVVCLLNNFYPREAKVQWKVDNALQSGNSQESVTEQDSKDSTYSLSSTLTLSKADYEKHKVYACEVTHQGLSSPVTKSFNRGEC |
